IntAct's records for PubMed 24997600

B1: Regulation of nuclear pre-mRNA domain-containing protein 1B (Homo sapiens), Q9NQG5 (parent)
chain: MSSFSESALEKKLSELSNSQQSVQTLSLWLIHHRKHAGPIVSVWHRELRKAKSNRKLTFLYLANDVIQNSKRKGPEFTREFESVLVDAFSHVAREADEGCKKPLERLLNIWQERSVYGGEFIQQLKLSMEDSKSPPPKATEEKKSLKRTFQQIQEEEDDDYPGSYSPQDPSAGPLLTEELIKALQDLENAASGDATVRQKIASLPQEVQDVSLLEKITDKEAAERLSKTVDEACLLLAEYNGRLAAELEDRRQLARMLVEYTQNQKDVLSEKEKKLEEYKQKLARVTQVRKELKSHIQSLPDLSLLPNVTGGLAPLPSAGDLFSTD

Variants of: B1
Details: with rpb1_human POLR2A

| Variant | effect of a mutation on the interaction |
| --- | --- |
| R114A | disrupting interaction strength |
